From ChEMBL document CHEMBL2203217, “Prohormone-substrate peptide sequence recognition by peptidylglycine α-amidating monooxygenase and its reflection in increased glycolate inhibitor potency” (Bioorg Med Chem Lett, 2012)

Legend:
[1] = substrate: CC(=O)N1CCC[C@H]1C(=O)N[C@@H](CC(C)C)C(=O)NCC(=O)NCC(=O)O; test: (§1) Binding affinity to secreted PAM in human DMS53 cell culture medium after 2 hrs by HPLC analysis; details: DMS-53
[2] = substrate: CC(=O)N1CCC[C@H]1C(=O)N[C@@H](CC(C)C)C(=O)N[C@@H](Cc1ccccc1)C(=O)NCC(=O)O; test: as §1; details: DMS-53
[3] = substrate: CC(=O)NCC(=O)NCC(=O)O; test: as §1; details: DMS-53
[4] = substrate: CC(=O)NCC(=O)O; test: as §1; details: DMS-53
[5] = substrate: CC(=O)N[C@@H](CC(C)C)C(=O)NCC(=O)NCC(=O)O; test: as §1; details: DMS-53
[6] = substrate: CC(=O)N[C@@H](CC(C)C)C(=O)N[C@@H](Cc1ccccc1)C(=O)NCC(=O)O; test: as §1; details: DMS-53
[7] = substrate: CC(=O)N[C@@H](Cc1ccccc1)C(=O)NCC(=O)O; test: as §1; details: DMS-53
[8] = substrate: CC(C)[C@H](N)C(=O)NCC(=O)N[C@@H](C)C(=O)N1CCC[C@H]1C(=O)NCC(=O)O; test: as §1; details: DMS-53
[9] = substrate: CC(C)[C@H](N)C(=O)NCC(=O)N[C@@H](C)C(=O)N[C@@H](Cc1ccccc1)C(=O)NCC(=O)O; test: as §1; details: DMS-53
[10] = substrate: CC[C@H](C)[C@@H]1NC(=O)[C@H](Cc2ccc(O)cc2)NC(=O)[C@@H](N)CSSC[C@@H](C(=O)N2CCC[C@H]2C(=O)N[C@@H](CC(C)C)C(=O)NCC(=O)NCC(=O)O)NC(=O)[C@H](CC(N)=O)NC(=O)[C@H](CCC(N)=O)NC1=O; test: as §1; details: DMS-53
[11] = substrate: CC[C@H](C)[C@@H]1NC(=O)[C@H](Cc2ccc(O)cc2)NC(=O)[C@@H](N)CSSC[C@@H](C(=O)N2CCC[C@H]2C(=O)N[C@@H](CC(C)C)C(=O)N[C@@H](Cc2ccccc2)C(=O)NCC(=O)O)NC(=O)[C@H](CC(N)=O)NC(=O)[C@H](CCC(N)=O)NC1=O; test: as §1; details: DMS-53
[12] = substrate: CC[C@H](C)[C@H](NC(=O)[C@H](C)NC(=O)[C@@H](NC(=O)[C@H](CCC(N)=O)NC(=O)[C@@H]1CCCN1C(=O)[C@H](Cc1ccccc1)NC(=O)[C@@H](NC(=O)[C@H](Cc1cnc[nH]1)NC(=O)[C@H](Cc1ccccc1)NC(=O)[C@H](CCCCN)NC(=O)[C@H](CC(N)=O)NC(=O)[C@H](Cc1ccccc1)NC(=O)[C@H](CC(=O)O)NC(=O)[C@H](CCC(N)=O)NC(=O)[C@@H](NC(=O)[C@H](Cc1ccc(O)cc1)NC(=O)[C@@H](NC(=O)CNC(=O)[C@H](CC(C)C)NC(=O)[C@H](CCSC)NC(=O)[C@@H]1CSSC[C@H](N)C(=O)NCC(=O)N[C@@H](CC(N)=O)C(=O)N[C@@H](CC(C)C)C(=O)N[C@@H](CO)C(=O)N[C@@H]([C@@H](C)O)C(=O)N1)[C@@H](C)O)[C@@H](C)O)[C@@H](C)O)[C@@H](C)O)C(=O)NCC(=O)N[C@H](C(=O)NCC(=O)N[C@@H](C)C(=O)N1CCC[C@H]1C(=O)NCC(=O)O)C(C)C; test: as §1; details: DMS-53
[13] = substrate: CC[C@H](C)[C@H](NC(=O)[C@H](C)NC(=O)[C@@H](NC(=O)[C@H](CCC(N)=O)NC(=O)[C@@H]1CCCN1C(=O)[C@H](Cc1ccccc1)NC(=O)[C@@H](NC(=O)[C@H](Cc1cnc[nH]1)NC(=O)[C@H](Cc1ccccc1)NC(=O)[C@H](CCCCN)NC(=O)[C@H](CC(N)=O)NC(=O)[C@H](Cc1ccccc1)NC(=O)[C@H](CC(=O)O)NC(=O)[C@H](CCC(N)=O)NC(=O)[C@@H](NC(=O)[C@H](Cc1ccc(O)cc1)NC(=O)[C@@H](NC(=O)CNC(=O)[C@H](CC(C)C)NC(=O)[C@H](CCSC)NC(=O)[C@@H]1CSSC[C@H](N)C(=O)NCC(=O)N[C@@H](CC(N)=O)C(=O)N[C@@H](CC(C)C)C(=O)N[C@@H](CO)C(=O)N[C@@H]([C@@H](C)O)C(=O)N1)[C@@H](C)O)[C@@H](C)O)[C@@H](C)O)[C@@H](C)O)C(=O)NCC(=O)N[C@H](C(=O)NCC(=O)N[C@@H](C)C(=O)N[C@@H](Cc1ccccc1)C(=O)NCC(=O)O)C(C)C; test: as §1; details: DMS-53
[14] = substrate: C[C@H](N)C(=O)N1CCC[C@H]1C(=O)NCC(=O)O; test: as §1; details: DMS-53
[15] = substrate: C[C@H](N)C(=O)N[C@@H](Cc1ccccc1)C(=O)NCC(=O)O; test: as §1; details: DMS-53
[16] = substrate: C[C@H](NC(=O)CN)C(=O)N1CCC[C@H]1C(=O)NCC(=O)O; test: as §1; details: DMS-53
[17] = substrate: C[C@H](NC(=O)CN)C(=O)N[C@@H](Cc1ccccc1)C(=O)NCC(=O)O; test: as §1; details: DMS-53
[18] = substrate: N[C@@H](Cc1ccccc1)C(=O)NCC(=O)O; test: as §1; details: DMS-53
[19] = substrate: O=C(O)CNC(=O)[C@@H]1CCCN1; test: as §1; details: DMS-53
[20] = substrate: CC(=O)N1CCC[C@H]1C(=O)N[C@@H](CC(C)C)C(=O)NCC(=O)NCC(=O)O; test: (§2) Binding affinity to PAM in human DMS53 cells after 2 hrs by HPLC analysis; format: cell-based
[21] = substrate: CC(=O)N1CCC[C@H]1C(=O)N[C@@H](CC(C)C)C(=O)N[C@@H](Cc1ccccc1)C(=O)NCC(=O)O; test: as §2; format: cell-based
[22] = substrate: CC(=O)NCC(=O)NCC(=O)O; test: as §2; format: cell-based
[23] = substrate: CC(=O)NCC(=O)O; test: as §2; format: cell-based
[24] = substrate: CC(=O)N[C@@H](CC(C)C)C(=O)NCC(=O)NCC(=O)O; test: as §2; format: cell-based
[25] = substrate: CC(=O)N[C@@H](CC(C)C)C(=O)N[C@@H](Cc1ccccc1)C(=O)NCC(=O)O; test: as §2; format: cell-based
[26] = substrate: CC(=O)N[C@@H](Cc1ccccc1)C(=O)NCC(=O)O; test: as §2; format: cell-based
[27] = substrate: CC(C)[C@H](N)C(=O)NCC(=O)N[C@@H](C)C(=O)N1CCC[C@H]1C(=O)NCC(=O)O; test: as §2; format: cell-based
[28] = substrate: CC(C)[C@H](N)C(=O)NCC(=O)N[C@@H](C)C(=O)N[C@@H](Cc1ccccc1)C(=O)NCC(=O)O; test: as §2; format: cell-based
[29] = substrate: CC[C@H](C)[C@@H]1NC(=O)[C@H](Cc2ccc(O)cc2)NC(=O)[C@@H](N)CSSC[C@@H](C(=O)N2CCC[C@H]2C(=O)N[C@@H](CC(C)C)C(=O)NCC(=O)NCC(=O)O)NC(=O)[C@H](CC(N)=O)NC(=O)[C@H](CCC(N)=O)NC1=O; test: as §2; format: cell-based
[30] = substrate: CC[C@H](C)[C@@H]1NC(=O)[C@H](Cc2ccc(O)cc2)NC(=O)[C@@H](N)CSSC[C@@H](C(=O)N2CCC[C@H]2C(=O)N[C@@H](CC(C)C)C(=O)N[C@@H](Cc2ccccc2)C(=O)NCC(=O)O)NC(=O)[C@H](CC(N)=O)NC(=O)[C@H](CCC(N)=O)NC1=O; test: as §2; format: cell-based
[31] = substrate: CC[C@H](C)[C@H](NC(=O)[C@H](C)NC(=O)[C@@H](NC(=O)[C@H](CCC(N)=O)NC(=O)[C@@H]1CCCN1C(=O)[C@H](Cc1ccccc1)NC(=O)[C@@H](NC(=O)[C@H](Cc1cnc[nH]1)NC(=O)[C@H](Cc1ccccc1)NC(=O)[C@H](CCCCN)NC(=O)[C@H](CC(N)=O)NC(=O)[C@H](Cc1ccccc1)NC(=O)[C@H](CC(=O)O)NC(=O)[C@H](CCC(N)=O)NC(=O)[C@@H](NC(=O)[C@H](Cc1ccc(O)cc1)NC(=O)[C@@H](NC(=O)CNC(=O)[C@H](CC(C)C)NC(=O)[C@H](CCSC)NC(=O)[C@@H]1CSSC[C@H](N)C(=O)NCC(=O)N[C@@H](CC(N)=O)C(=O)N[C@@H](CC(C)C)C(=O)N[C@@H](CO)C(=O)N[C@@H]([C@@H](C)O)C(=O)N1)[C@@H](C)O)[C@@H](C)O)[C@@H](C)O)[C@@H](C)O)C(=O)NCC(=O)N[C@H](C(=O)NCC(=O)N[C@@H](C)C(=O)N1CCC[C@H]1C(=O)NCC(=O)O)C(C)C; test: as §2; format: cell-based
[32] = substrate: CC[C@H](C)[C@H](NC(=O)[C@H](C)NC(=O)[C@@H](NC(=O)[C@H](CCC(N)=O)NC(=O)[C@@H]1CCCN1C(=O)[C@H](Cc1ccccc1)NC(=O)[C@@H](NC(=O)[C@H](Cc1cnc[nH]1)NC(=O)[C@H](Cc1ccccc1)NC(=O)[C@H](CCCCN)NC(=O)[C@H](CC(N)=O)NC(=O)[C@H](Cc1ccccc1)NC(=O)[C@H](CC(=O)O)NC(=O)[C@H](CCC(N)=O)NC(=O)[C@@H](NC(=O)[C@H](Cc1ccc(O)cc1)NC(=O)[C@@H](NC(=O)CNC(=O)[C@H](CC(C)C)NC(=O)[C@H](CCSC)NC(=O)[C@@H]1CSSC[C@H](N)C(=O)NCC(=O)N[C@@H](CC(N)=O)C(=O)N[C@@H](CC(C)C)C(=O)N[C@@H](CO)C(=O)N[C@@H]([C@@H](C)O)C(=O)N1)[C@@H](C)O)[C@@H](C)O)[C@@H](C)O)[C@@H](C)O)C(=O)NCC(=O)N[C@H](C(=O)NCC(=O)N[C@@H](C)C(=O)N[C@@H](Cc1ccccc1)C(=O)NCC(=O)O)C(C)C; test: as §2; format: cell-based
[33] = substrate: C[C@H](N)C(=O)N1CCC[C@H]1C(=O)NCC(=O)O; test: as §2; format: cell-based
[34] = substrate: C[C@H](N)C(=O)N[C@@H](Cc1ccccc1)C(=O)NCC(=O)O; test: as §2; format: cell-based
[35] = substrate: C[C@H](NC(=O)CN)C(=O)N1CCC[C@H]1C(=O)NCC(=O)O; test: as §2; format: cell-based
[36] = substrate: C[C@H](NC(=O)CN)C(=O)N[C@@H](Cc1ccccc1)C(=O)NCC(=O)O; test: as §2; format: cell-based
[37] = substrate: N[C@@H](Cc1ccccc1)C(=O)NCC(=O)O; test: as §2; format: cell-based
[38] = substrate: O=C(O)CNC(=O)[C@@H]1CCCN1; test: as §2; format: cell-based

B1: Peptidyl-glycine alpha-amidating monooxygenase (Homo sapiens), P19021 (protein)
chain: MAGRVPSLLVLLVFPSSCLAFRSPLSVFKRFKETTRPFSNECLGTTRPVVPIDSSDFALDIRMPGVTPKQSDTYFCMSMRIPVDEEAFVIDFKPRASMDTVHHMLLFGCNMPSSTGSYWFCDEGTCTDKANILYAWARNAPPTRLPKGVGFRVGGETGSKYFVLQVHYGDISAFRDNNKDCSGVSLHLTRLPQPLIAGMYLMMSVDTVIPAGEKVVNSDISCHYKNYPMHVFAYRVHTHHLGKVVSGYRVRNGQWTLIGRQSPQLPQAFYPVGHPVDVSFGDLLAARCVFTGEGRTEATHIGGTSSDEMCNLYIMYYMEAKHAVSFMTCTQNVAPDMFRTIPPEANIPIPVKSDMVMMHEHHKETEYKDKIPLLQQPKREEEEVLDQGDFYSLLSKLLGEREDVVHVHKYNPTEKAESESDLVAEIANVVQKKDLGRSDAREGAEHERGNAILVRDRIHKFHRLVSTLRPPESRVFSLQQPPPGEGTWEPEHTGDFHMEEALDWPGVYLLPGQVSGVALDPKNNLVIFHRGDHVWDGNSFDSKFVYQQIGLGPIEEDTILVIDPNNAAVLQSSGKNLFYLPHGLSIDKDGNYWVTDVALHQVFKLDPNNKEGPVLILGRSMQPGSDQNHFCQPTDVAVDPGTGAIYVSDGYCNSRIVQFSPSGKFITQWGEESSGSSPLPGQFTVPHSLALVPLLGQLCVADRENGRIQCFKTDTKEFVREIKHSSFGRNVFAISYIPGLLFAVNGKPHFGDQEPVQGFVMNFSNGEIIDIFKPVRKHFDMPHDIVASEDGTVYIGDAHTNTVWKFTLTEKLEHRSVKKAGIEVQEIKEAEAVVETKMENKPTSSELQKMQEKQKLIKEPGSGVPVVLITTLLVIPVVVLLAIAIFIRWKKSRAFGDSEHKLETSSGRVLGRFRGKGSGGLNLGNFFASRKGYSRKGFDRLSTEGSDQEKEDDGSESEEEYSAPLPALAPSSS
B1 gave a Km [1] of 550 µM, a Km [2] of 7 µM and a Km [3] of 1200 µM. It also gave a Km [4] of 9900 µM, a Km [5] of 860 µM and a Km [6] of 11 µM. For the same protein, the Km [7] was 16 µM, the Km [8] was 960 µM and the Km [9] was 18 µM. For the same protein, the Km [10] was 190 µM, the Km [11] was 27 µM and the Km [12] was 200 µM. For the same protein, the Km [13] was 14 µM, the Km [14] was 4000 µM and the Km [15] was 200 µM. For the same protein, the Km [16] was 3000 µM, the Km [17] was 35 µM and the Km [18] was 6500 µM. The Km [19] was 880 µM, the Km [20] was 660 µM and the Km [21] was 6 µM. It also gave a Km [22] of 1600 µM, a Km [23] of 7500 µM and a Km [24] of 860 µM. For the same protein, the Km [25] was 8 µM, the Km [26] was 6 µM and the Km [27] was 1000 µM. It also gave a Km [28] of 8 µM, a Km [29] of 36 µM and a Km [30] of 5 µM. For the same protein, the Km [31] was 200 µM, the Km [32] was 8 µM and the Km [33] was 5000 µM. The Km [34] was 180 µM, the Km [35] was 3000 µM and the Km [36] was 40 µM. For the same protein, the Km [37] was 6000 µM and the Km [38] was 980 µM.
